# Measurements reported in article PMC3220508.
# Target: HSPC038-EYFP fusion protein (human) (UniProt Q9Y5V0)
# Test: FRET or BRET
# Chain of UniProt Q9Y5V0 (Q9Y5V0 whole entry, the tested form may be a part): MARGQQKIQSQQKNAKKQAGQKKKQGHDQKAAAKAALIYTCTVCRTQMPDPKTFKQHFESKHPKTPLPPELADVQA
substance,measurement,value
ICln-ECFP fusion protein (from UniProt P54105 1-237) (natural protein),"normalized netFRET, 5 min hypotonic (isotonic = 1.00)",1.31
same,"normalized netFRET, 15 min hypotonic (isotonic = 1.00)",1.44
same,"normalized netFRET, 30 min hypotonic (isotonic = 1.00)",1.49
